Patent US20130251702A1, “METHOD FOR SCREENING COMPOUNDS FOR TREATING SEPSIS TARGETING NOD2 SIGNALLING PATHWAY AND COMPOSITION FOR TREATING SEPSIS COMPRISING NOD2 SIGNALLING PATHWAY INHIBITORS” (SNU R&DB FOUNDATION, priority 2012, published 2013)

Key:
[1] = system: NOD2-mediated IL-1β and IL-10 production; test: Peritoneal immune cells cultured with SB203580 and/or MDP, IL-1β and IL-10 measured in culture; format: cell-based, mice
Procedure: (§1) Concentrations of IL-1β, IL-6, IL-10, IFN-γ, TNF-α and C5a in serum and peritoneal fluid were measured in CLP-induced sepsis mice. All cytokines were measured using a BD Bioscience ELISA kit according to the manufacturer's instructions. Colorimetric reactions were stopped by adding 3 N HCl, and the optical absorbance at 450 and 570 nm was determined using a spectrophotometer.
To investigate the mechanism by which NOD2 enhances C5 generation during polymicrobial infection, serum and peritoneal levels of various cytokines in WT and Nod2^−/− mice were estimated after CLP. […] To confirm whether NOD2-mediated signals induce IL-1β and IL-10 production by immune cells, peritoneal cells from WT and Nod2^−/− mice were cultured with MDP, a NOD2 agonist. […] Among immune cells, monocytes, granulocytes, and dendritic cells, but not T or B cells, express NOD 2 (Gutierrez, O. et al. Induction of Nod2 in myelomonocytic and intestinal epithelial cells via nuclear factor-kappa B activation. J Biol Chem 277, 41701-41705 (2002)).
Upon activation, NOD2 oligomerizes and recruits the nuclear factor (NF)-κB-activating kinase receptor-interacting protein 2 (RIP2) via a homotypic CARD-CARD (caspase recruitment domain) interaction, triggering IκB phosphorylation and NF-κB activation.

RIP2 = molecular target: T1, RIP2 (Mus musculus, UniProt P58801); test: Blot of RIP2 phosphorylation in peritoneal immune cells during CLP-induced sepsis; format: in vivo; conditions: WT mice, SB203580 50 μg/mouse i.p.
T1 construct: reduced phosphorylation of RIP2 and P38 in peritoneal immune cells; endogenous in cells

CLP-induced sepsis mice = test: Serum and peritoneal cytokine and complement levels (ELISA) in CLP-induced sepsis mice; format: in vivo; conditions: for serum and peritoneal C5a generation: WT or Nod2−/− mice, recombinant cytokine 4 h or 12 h after CLP
Procedure: (§2) To deplete Gr-1^+cells in vivo, WT B6 or NOD2−/− mice were i.p. injected with anti-Gr-1 mAb (160 μg/injection) (BD Bioscience, Sparks, Md., USA) 2 and 3 days prior to CLP. Recombinant mouse (mr) IL-1β (40 μg/mouse) or IL-10 (30 μg/mouse) (ProSpec-Tany TechnoGene, Rehovot, Israel) was i.p. injected into WT or Nod2^−/− mice 4 or 12 h after CLP, respectively. mrC5a (5 μg/injection) or anti-05a mAb (100 μg/injection) (R&D Systems Inc., Minneapolis, Minn., USA) was i.p. injected into WT or Nod2^−/− mice 4 and 12 h after CLP.
as §1

CD55 = CD55 expression on Ly6-G+ peritoneal cells (flow cytometry) after CLP; format: in vivo, mice
Procedure: as §2
PLF cells were incubated with antibodies on ice for 30 min in 100 μl of staining buffer (0.5% BSA). FITC-conjugated anti-Ly-6G, phycoerythrin (PE)-conjugated anti-CD4 mAb, PE-conjugated anti-CD8, PE-conjugated anti-MHC class II, FITC-conjugated anti-CD80, FITC-conjugated anti-CD86, FITC-conjugated anti-annexin V mAbs, and 7AAD (7-amino-actinomycin D) were purchased from BD Biosciences. PE Cy5- or Alexa 647 (eBioscience, San Diego, Calif., USA)-conjugated anti-F4/80 mAb was used. Stained cells were then run on an LSR II and FACs caliber (BD Bioscience) and analyzed using Flowjo software (Treestar, Ashland, Oreg., USA).

CLP-induced sepsis = test: Survival in CLP-induced sepsis; format: in vivo, mice; conditions: for survival during CLP-induced sepsis: WT mice injected with recombinant protein after CLP
Procedure: as §2
Survival data were plotted as Kaplan-Meier survival curves and analyzed using the log-rank test. Statistical significance was analyzed using Prism 5.0 (GraphPad Software Inc, San Diego, Calif., USA). One-way and two-way analyses of variance (ANOVA) and t-tests was performed, and a post hoc test was used if P<0.05. Data are expressed as the mean±standard error of the mean.

[2] = cited from earlier work
peritoneal immune cells = test: Responsiveness of peritoneal immune cells from CLP mice against LPS (cytokine production LPS vs PBS); format: in vivo; conditions: for LPS-mediated cytokine production by peritoneal immune cells: cells from Nod2−/− mice with CLP
Procedure: as §2
(§3) During bacterial septic shock, C5a triggers coagulopathy and neutrophil dysfunction, thereby defective bacterial clearance and cytokine production (Ward, P. A. The dark side of C5a in sepsis. Nat Rev Immunol 4, 133-142 (2004)). Therefore, to estimate C5a effects on immune responses in WT B6 and Nod2^−/− mice during infection, we examined the responsiveness of immune cells against lipopolysaccharide (LPS) and macrophage phagocytic activity, bacteria colony-forming units (CFUs), and levels of serum D-dimer after CLP. To estimate the responsiveness of peritoneal immune cells against LPS, peritoneal cells obtained from B6 or Nod2^−/− mice 24 h after CLP were stimulated with LPS or PBS (FIG. 1C). The responsiveness of peritoneal immune cells against LPS was determined by estimating ratios of individual cytokines produced against LPS versus PBS. Peritoneal immune cells obtained from Nod2^−/− mice 24 h after CLP produced higher IL-1β, IL-6, and TNF-αlevels against LPS than did WT peritoneal cells. The levels of serum D-dimer in Nod2^−/− mice were lower than those in WT mice (FIG. 1D). However, peritoneal cells obtained from Nod2^−/− mice engulfed more FITC-conjugated Escherichia coli than did WT peritoneal cells (FIG. 1E). Consistent with these findings, bacteria CFU levels in the blood and liver homogenates were higher in WT B6 mice than in Nod2^−/− mice (FIG. 1F). Recombinant C5a administration to Nod2^−/− mice with CLP reversed cytokine production by peritoneal immune cells and serum D-dimer levels, but not phagocytosis activity and bacterial CFUs.

bacteria = test: Bacterial CFUs in blood and liver homogenates after CLP; format: in vivo; conditions: Nod2−/− mice with CLP
Procedure: Bacterial CFUs were determined by plating serial dilutions of blood and liver homogenates onto blood agar plates (Hanil Komed, Seoul, Korea), which were incubated in 5% CO2 at 37° C. overnight. The number of colonies was counted 18 h later.

[3] = Serum D-dimer levels after CLP; format: in vivo; conditions: Nod2−/− mice with CLP
From the text: as §3, with “Recombinant C5a administration to Nod2^−/− mice with CLP reversed cytokine production by peritoneal immune cells and serum D-dimer levels, but not phagocytosis activity and bacterial CFUs.” left out

peritoneal cells = test: Bacterial phagocytosis by peritoneal immune cells (FITC-labeled E. coli); format: in vivo; conditions: Nod2−/− mice with CLP
Procedure: Peritoneal fluid cells of WT B6 or Nod2^−/− mice were cultured with FITC-labeled E. coli (Invitrogen, Carlsbad, Calif., USA) for 15 min. Cells attached on the plates were washed with warm PBS three times and then treated with 0.2% trypan blue for 1 min at room temperature. Cells were fixed with 4% formalin for 15 min and cultured with FITC-labeled E. coli. to estimate nonspecific binding of E. coli on the cell surface. These cells, which were cultured with FITC-labeled E. coli, were then run on the FACs caliber machine and analyzed with Flowjo software.

[4] = WT mice peritoneal immune cells, SB203580 20 nM, MDP 20 μg/ml, 24 h
[5] = WT mice, CLP, SB203580 50 μg/mouse i.p.
[6] = 73 patients treated, Critical Care Medicine 2009
[7] = Nod2−/− mice, polymicrobial infection
[8] = Nod2−/− mice injected with recombinant protein after CLP

T1 sequence (P58801 whole entry): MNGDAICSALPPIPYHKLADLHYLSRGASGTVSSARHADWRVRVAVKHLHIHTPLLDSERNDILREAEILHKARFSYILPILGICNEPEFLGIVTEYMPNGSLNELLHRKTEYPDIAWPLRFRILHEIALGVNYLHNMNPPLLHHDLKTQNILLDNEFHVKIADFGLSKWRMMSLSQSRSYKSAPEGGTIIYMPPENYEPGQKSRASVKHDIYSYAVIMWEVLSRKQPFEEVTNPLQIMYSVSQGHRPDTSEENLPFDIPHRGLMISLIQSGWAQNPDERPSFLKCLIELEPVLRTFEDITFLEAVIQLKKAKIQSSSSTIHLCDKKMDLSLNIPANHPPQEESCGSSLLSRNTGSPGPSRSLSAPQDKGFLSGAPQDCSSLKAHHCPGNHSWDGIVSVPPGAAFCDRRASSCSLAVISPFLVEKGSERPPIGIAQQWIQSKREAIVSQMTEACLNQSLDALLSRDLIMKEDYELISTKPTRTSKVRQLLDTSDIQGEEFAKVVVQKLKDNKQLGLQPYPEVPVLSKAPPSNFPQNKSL

Question: For `CC(=O)N[C@@H]1[C@@H](O[C@H](C)C(=O)N[C@@H](C)C(=O)N[C@H](CCC(=O)O)C(N)=O)[C@H](O)[C@@H](CO)O[C@H]1O` [MDP], which “IL-1β production upon MDP treatment” value ([1]; NOD2-deficient cells) is on record?
Answer: minimally produced

Question: And the “IL-10 production upon MDP treatment” value ([1]; NOD2-deficient cells)?
Answer: minimally produced

Question: What about the “IL-1β production upon MDP treatment” value ([1]; WT peritoneal immune cells) of the same molecule?
Answer: produced

Question: And the “IL-10 production upon MDP treatment” value ([1]; WT peritoneal immune cells)?
Answer: produced

Question: With `C[S+]([O-])c1ccc(-c2nc(-c3ccncc3)c(-c3ccc(F)cc3)[nH]2)cc1` (centres unmarked) [SB203580, reference compound] as the molecule, how does the “MDP-mediated IL-1β production by peritoneal cells” value [1, 4] read?
Answer: decreased

Question: And the “MDP-mediated IL-10 production by peritoneal cells” value [1, 4]?
Answer: decreased

Question: And the “phosphorylation of RIP2 in peritoneal immune cells” value (RIP2)?
Answer: reduced

Question: What about the “levels of serum and peritoneal C5a during sepsis” value (CLP-induced sepsis mice; [5]) of the same molecule?
Answer: reduced

Question: And the “levels of serum and peritoneal IL-1β during sepsis” value (CLP-induced sepsis mice; [5])?
Answer: reduced

Question: What about the “levels of serum and peritoneal IL-10 during sepsis” value (CLP-induced sepsis mice; [5]) of the same molecule?
Answer: reduced

Question: And the “CD55 expression levels of Ly6-G+ granulocytes” value (CD55; [5])?
Answer: reduced

Question: And the CLP-induced sepsis (CLP-induced sepsis; WT mice injected with SB203580, FIG. 6 legend)?
Answer: attenuates

Question: What about the “survival rates during CLP-induced sepsis” value (CLP-induced sepsis; WT mice, SB203580 50 μg/mouse i.p. vs PBS) of the same molecule?
Answer: increased

Question: What does the source list for Drotrecogin alfa [Xigris]?
Answer: fatality [2, 6]: increased; hemorrhage [2, 6]: severe hemorrhage had occurred; severe side effect in clinical trial ([2]; pediatric patients with severe blood infection): cerebral hemorrhage

B1: recombinant IL-10: Recombinant mouse IL-10, 30 μg/mouse i.p. (protein, UniProt P18893 19-178, looked up)
Interleukin-10: SRGQYSREDNNCTHFPVGQSHMLLELRTAFSQVKTFFQTKDQLDNILLTDSLMQDFKGYLGCQALSEMIQFYLVEVMPQAEKHGPEIKEHLNSLGEKLKTLRMRLRRCHRFLPCENKSKAVEQVKSDFNKLQDQGVYKAMNEFDIFINCIEAYMMIKMKS
Question: Which “serum and peritoneal C5a generation” value (CLP-induced sepsis mice) does the source give for B1 here?
Answer: enhanced

Question: What about the “CD55 expression on F4/80−Ly6-G+ peritoneal cells” value (CD55; [7]) of the same molecule?
Answer: decreased

Question: And the “survival rates during CLP-induced sepsis” value (CLP-induced sepsis; [8])?
Answer: reduced

Question: What about the “survival during CLP-induced sepsis” value (CLP-induced sepsis) of the same molecule?
Answer: did not affect

Question: What about the “LPS-mediated cytokine production by peritoneal immune cells” value (peritoneal immune cells) of the same molecule?
Answer: suppressed

Question: What about the “bacterial CFUs in the blood or liver homogenates” value (bacteria) of the same molecule?
Answer: not

B2: recombinant C5a: recombinant mouse C5a, i.p. injected 5 μg/injection (protein, UniProt P06684 679-755, looked up)
C5a anaphylatoxin: NLHLLRQKIEEQAAKYKHSVPKKCCYDGARVNFYETCEERVARVTIGPLCIRAFNECCTIANKIRKESPHKPVQLGR
modifications: C5a anaphylatoxin
notes: recombinant mouse C5a, i.p. injected 5 μg/injection
Question: What does the source list for B2?
Answer: survival rates during CLP-induced sepsis (CLP-induced sepsis; [8]): decreased; survival during CLP-induced sepsis (CLP-induced sepsis): did not cause survival changes; LPS-mediated cytokine production by peritoneal immune cells (peritoneal immune cells): reversed; serum D-dimer levels [3]: reversed; bacterial CFUs in the blood or liver homogenates (bacteria): not

B3: recombinant IL-1β: Recombinant mouse (mr) IL-1β, 40 μg/mouse i.p. (protein, UniProt P10749 118-269, looked up)
Interleukin-1 beta: VPIRQLHYRLRDEQQKSLVLSDPYELKALHLNGQNINQQVIFSMSFVQGEPSNDKIPVALGLKGKNLYLSCVMKDGTPTLQLESVDPKQYPKKKMEKRFVFNKIEVKSKVEFESAEFPNWYISTSQAEHKPVFLGNNSGQDIIDFTMESVSS
Question: With B3 as the molecule, how does the “C5a levels during polymicrobial infection” value (CLP-induced sepsis mice; Il-10−/− mice with CLP) read?
Answer: not altered

Question: And the “serum and peritoneal IL-10 levels” value (CLP-induced sepsis mice; Nod2−/− mice, polymicrobial infection (CLP))?
Answer: enhanced

Question: What about the “serum and peritoneal C5a generation” value (CLP-induced sepsis mice) of the same molecule?
Answer: enhanced

Question: And the “CD55 expression on F4/80−Ly6-G+ peritoneal cells” value (CD55; Il-10−/− mice)?
Answer: did not decrease

Question: And the “CD55 expression on F4/80−Ly6-G+ peritoneal cells” value (CD55; [7])?
Answer: decreased

Question: And the “survival rates during CLP-induced sepsis” value (CLP-induced sepsis; [8])?
Answer: reduced

Question: And the “survival during CLP-induced sepsis” value (CLP-induced sepsis)?
Answer: did not affect

Question: What about the “LPS-induced cytokine production by peritoneal immune cells” value (peritoneal immune cells; cells from Il-10−/− mice with CLP) of the same molecule?
Answer: did not alter

Question: What about the “LPS-mediated cytokine production by peritoneal immune cells” value (peritoneal immune cells) of the same molecule?
Answer: suppressed

Question: And the “phagocytosis of bacteria by peritoneal cells” value (peritoneal cells)?
Answer: reduced

Question: And the “bacterial CFUs in the blood or liver homogenates” value (bacteria)?
Answer: reduced
